Data reported in publication PMC12315501 (2025).

Molecular target: recombinant NbRab‐G3c protein (Nicotiana benthamiana)
Assay: ITC

B1: recombinant Pi17063 protein (natural protein)
chain: ASADSNERLVRAVYSTVRSRDLATDDGPKHTKRFLRGESSKIVNLKQEEGVFEERKGVSQKLTKALQAIKARYLKWEQKVLVPGFKKMAEKGVTYSELRDTFRVRMMNSGRWGTPSGFKRYARLYSEWLHRTGRSHLAK
- Kd: 1480 nM
